Data taken from US20220298218A1 (ANTAG THERAPEUTICS, published 2022).
*1 amine or outer side, *2 acyl side, *3 side chain or, on linkers, in order; H or OH if unused. Where no end group is shown, it is not given here. Side-chain parts run from the residue outwards. The star is where a group is joined. C18 diacid = O=C(O)CCCCCCCCCCCCCCCCC(=O)*; γGlu = O=C(O)[C@H](CCC(=O)[*:2])N[*:1]; AEEA = NCCOCCOCC(=O)O

Target: T1, human GIP receptor (human, UniProt P48546 22-466)
T1 sequence (looked up): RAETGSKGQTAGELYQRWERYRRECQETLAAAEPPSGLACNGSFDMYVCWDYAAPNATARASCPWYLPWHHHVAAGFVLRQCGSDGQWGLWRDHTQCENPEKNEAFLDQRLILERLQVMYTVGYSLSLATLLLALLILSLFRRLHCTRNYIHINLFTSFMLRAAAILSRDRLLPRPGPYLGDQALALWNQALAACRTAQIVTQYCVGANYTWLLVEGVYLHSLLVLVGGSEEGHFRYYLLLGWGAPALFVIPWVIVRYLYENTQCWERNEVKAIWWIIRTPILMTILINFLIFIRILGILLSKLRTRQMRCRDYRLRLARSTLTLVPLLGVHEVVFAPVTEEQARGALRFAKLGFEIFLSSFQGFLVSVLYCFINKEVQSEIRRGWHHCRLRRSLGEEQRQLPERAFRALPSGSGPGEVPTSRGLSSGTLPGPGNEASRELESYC
Experiment: cell-based or functional assay

B1: AT586 (peptide)
peptide: EGTFISDYSIAMDKK([AEEA-AEEA-γGlu-C18 diacid])HQQDFVNWLLAQKPSSGAPPPS-NH2
modifications: N-terminus assumed
SMILES: CC[C@H](C)[C@H](NC(=O)[C@H](CO)NC(=O)[C@H](Cc1ccc(O)cc1)NC(=O)[C@H](CC(=O)O)NC(=O)[C@H](CO)NC(=O)[C@@H](NC(=O)[C@H](Cc1ccccc1)NC(=O)[C@@H](NC(=O)CNC(=O)[C@@H](N)CCC(=O)O)[C@@H](C)O)[C@@H](C)CC)C(=O)N[C@@H](C)C(=O)N[C@@H](CCSC)C(=O)N[C@@H](CC(=O)O)C(=O)N[C@@H](CCCCN)C(=O)N[C@@H](CCCCNC(=O)COCCOCCNC(=O)COCCOCCNC(=O)CC[C@H](NC(=O)CCCCCCCCCCCCCCCCC(=O)O)C(=O)O)C(=O)N[C@@H](Cc1c[nH]cn1)C(=O)N[C@@H](CCC(N)=O)C(=O)N[C@@H](CCC(N)=O)C(=O)N[C@@H](CC(=O)O)C(=O)N[C@@H](Cc1ccccc1)C(=O)N[C@H](C(=O)N[C@@H](CC(N)=O)C(=O)N[C@@H](Cc1c[nH]c2ccccc12)C(=O)N[C@@H](CC(C)C)C(=O)N[C@@H](CC(C)C)C(=O)N[C@@H](C)C(=O)N[C@@H](CCC(N)=O)C(=O)N[C@@H](CCCCN)C(=O)N1CCC[C@H]1C(=O)N[C@@H](CO)C(=O)N[C@@H](CO)C(=O)NCC(=O)N[C@@H](C)C(=O)N1CCC[C@H]1C(=O)N1CCC[C@H]1C(=O)N1CCC[C@H]1C(=O)N[C@@H](CO)C(N)=O)C(C)C
B1 was tested, and the “cAMP agonism % Emax” value was 0%, the “cAMP antagonism” value was 25.1 nM and the “cAMP antagonism % inhib” value was 80%. The “cAMP antagonism pIC50” value was 7.6.

B2: AT563 (peptide)
peptide: TFISDYSIAMDKIK([AEEA-AEEA-γGlu-C18 diacid])QQDFVNWLLAQKGKKNDW-OH
modifications: N-terminus assumed
SMILES: CC[C@H](C)[C@H](NC(=O)[C@H](CO)NC(=O)[C@H](Cc1ccc(O)cc1)NC(=O)[C@H](CC(=O)O)NC(=O)[C@H](CO)NC(=O)[C@@H](NC(=O)[C@H](Cc1ccccc1)NC(=O)[C@@H](N)[C@@H](C)O)[C@@H](C)CC)C(=O)N[C@@H](C)C(=O)N[C@@H](CCSC)C(=O)N[C@@H](CC(=O)O)C(=O)N[C@@H](CCCCN)C(=O)N[C@H](C(=O)N[C@@H](CCCCNC(=O)COCCOCCNC(=O)COCCOCCNC(=O)CC[C@H](NC(=O)CCCCCCCCCCCCCCCCC(=O)O)C(=O)O)C(=O)N[C@@H](CCC(N)=O)C(=O)N[C@@H](CCC(N)=O)C(=O)N[C@@H](CC(=O)O)C(=O)N[C@@H](Cc1ccccc1)C(=O)N[C@H](C(=O)N[C@@H](CC(N)=O)C(=O)N[C@@H](Cc1c[nH]c2ccccc12)C(=O)N[C@@H](CC(C)C)C(=O)N[C@@H](CC(C)C)C(=O)N[C@@H](C)C(=O)N[C@@H](CCC(N)=O)C(=O)N[C@@H](CCCCN)C(=O)NCC(=O)N[C@@H](CCCCN)C(=O)N[C@@H](CCCCN)C(=O)N[C@@H](CC(N)=O)C(=O)N[C@@H](CC(=O)O)C(=O)N[C@@H](Cc1c[nH]c2ccccc12)C(=O)O)C(C)C)[C@@H](C)CC
In the case of B2, the “cAMP agonism % Emax” value is reported as 0%, the “cAMP antagonism” value is reported as 4.64 nM and the “cAMP antagonism % inhib” value is reported as 80%. For the same binder, the “cAMP antagonism pIC50” value was 8.3.

With EGTFISDYSIAMDKIK([AEEA-AEEA-γGlu-C18 diacid])QQDFVNWLLAQKGPSSGAPPPS [AT589] the “cAMP agonism % Emax” value was 0%, the “cAMP antagonism” value was 5.84 nM and the “cAMP antagonism % inhib” value was 95%. For the same binder, the “cAMP antagonism pIC50” value was 8.2.

B3: AT587 (peptide)
peptide: EGTFISDYSIAMDKIK([AEEA-AEEA-γGlu-C18 diacid])QQDFVNWLLAQKPSSGAPPPS-NH2
modifications: N-terminus assumed
SMILES: CC[C@H](C)[C@H](NC(=O)[C@H](CO)NC(=O)[C@H](Cc1ccc(O)cc1)NC(=O)[C@H](CC(=O)O)NC(=O)[C@H](CO)NC(=O)[C@@H](NC(=O)[C@H](Cc1ccccc1)NC(=O)[C@@H](NC(=O)CNC(=O)[C@@H](N)CCC(=O)O)[C@@H](C)O)[C@@H](C)CC)C(=O)N[C@@H](C)C(=O)N[C@@H](CCSC)C(=O)N[C@@H](CC(=O)O)C(=O)N[C@@H](CCCCN)C(=O)N[C@H](C(=O)N[C@@H](CCCCNC(=O)COCCOCCNC(=O)COCCOCCNC(=O)CC[C@H](NC(=O)CCCCCCCCCCCCCCCCC(=O)O)C(=O)O)C(=O)N[C@@H](CCC(N)=O)C(=O)N[C@@H](CCC(N)=O)C(=O)N[C@@H](CC(=O)O)C(=O)N[C@@H](Cc1ccccc1)C(=O)N[C@H](C(=O)N[C@@H](CC(N)=O)C(=O)N[C@@H](Cc1c[nH]c2ccccc12)C(=O)N[C@@H](CC(C)C)C(=O)N[C@@H](CC(C)C)C(=O)N[C@@H](C)C(=O)N[C@@H](CCC(N)=O)C(=O)N[C@@H](CCCCN)C(=O)N1CCC[C@H]1C(=O)N[C@@H](CO)C(=O)N[C@@H](CO)C(=O)NCC(=O)N[C@@H](C)C(=O)N1CCC[C@H]1C(=O)N1CCC[C@H]1C(=O)N1CCC[C@H]1C(=O)N[C@@H](CO)C(N)=O)C(C)C)[C@@H](C)CC
B3 was tested, and the “cAMP agonism % Emax” value was 0%, the “cAMP antagonism” value was 3.98 nM and the “cAMP antagonism % inhib” value was 90%. The “cAMP antagonism pIC50” value was 8.4.

B4: AT588 (peptide)
peptide: EGTFISDYSIAMDKIK([AEEA-AEEA-γGlu-C18 diacid])QQDFVNWLLAQKGPSSGAPPPS-NH2
modifications: N-terminus assumed
SMILES: CC[C@H](C)[C@H](NC(=O)[C@H](CO)NC(=O)[C@H](Cc1ccc(O)cc1)NC(=O)[C@H](CC(=O)O)NC(=O)[C@H](CO)NC(=O)[C@@H](NC(=O)[C@H](Cc1ccccc1)NC(=O)[C@@H](NC(=O)CNC(=O)[C@@H](N)CCC(=O)O)[C@@H](C)O)[C@@H](C)CC)C(=O)N[C@@H](C)C(=O)N[C@@H](CCSC)C(=O)N[C@@H](CC(=O)O)C(=O)N[C@@H](CCCCN)C(=O)N[C@H](C(=O)N[C@@H](CCCCNC(=O)COCCOCCNC(=O)COCCOCCNC(=O)CC[C@H](NC(=O)CCCCCCCCCCCCCCCCC(=O)O)C(=O)O)C(=O)N[C@@H](CCC(N)=O)C(=O)N[C@@H](CCC(N)=O)C(=O)N[C@@H](CC(=O)O)C(=O)N[C@@H](Cc1ccccc1)C(=O)N[C@H](C(=O)N[C@@H](CC(N)=O)C(=O)N[C@@H](Cc1c[nH]c2ccccc12)C(=O)N[C@@H](CC(C)C)C(=O)N[C@@H](CC(C)C)C(=O)N[C@@H](C)C(=O)N[C@@H](CCC(N)=O)C(=O)N[C@@H](CCCCN)C(=O)NCC(=O)N1CCC[C@H]1C(=O)N[C@@H](CO)C(=O)N[C@@H](CO)C(=O)NCC(=O)N[C@@H](C)C(=O)N1CCC[C@H]1C(=O)N1CCC[C@H]1C(=O)N1CCC[C@H]1C(=O)N[C@@H](CO)C(N)=O)C(C)C)[C@@H](C)CC
B4 was tested, and the “cAMP agonism % Emax” value was 0%, the “cAMP antagonism” value was 23.3 nM and the “cAMP antagonism % inhib” value was 97%. The “cAMP antagonism pIC50” value was 7.6.

For TFISDYK([γGlu-γGlu-C18])IAMDKIHQQDFVNWLLAQKGKKNDW-OH [AT561], the “cAMP agonism % Emax” value was 0%, the “cAMP antagonism” value was 11.2 nM and the “cAMP antagonism % inhib” value was 97%. The “cAMP antagonism pIC50” value was 8.

B5: AT562 (peptide)
peptide: TFISDYSK([AEEA-AEEA-γGlu-C18 diacid])AMDKIHQQDFVNWLLAQKGKKNDW-OH
modifications: N-terminus assumed
SMILES: CC[C@H](C)[C@H](NC(=O)[C@H](CCCCN)NC(=O)[C@H](CC(=O)O)NC(=O)[C@H](CCSC)NC(=O)[C@H](C)NC(=O)[C@H](CCCCNC(=O)COCCOCCNC(=O)COCCOCCNC(=O)CC[C@H](NC(=O)CCCCCCCCCCCCCCCCC(=O)O)C(=O)O)NC(=O)[C@H](CO)NC(=O)[C@H](Cc1ccc(O)cc1)NC(=O)[C@H](CC(=O)O)NC(=O)[C@H](CO)NC(=O)[C@@H](NC(=O)[C@H](Cc1ccccc1)NC(=O)[C@@H](N)[C@@H](C)O)[C@@H](C)CC)C(=O)N[C@@H](Cc1c[nH]cn1)C(=O)N[C@@H](CCC(N)=O)C(=O)N[C@@H](CCC(N)=O)C(=O)N[C@@H](CC(=O)O)C(=O)N[C@@H](Cc1ccccc1)C(=O)N[C@H](C(=O)N[C@@H](CC(N)=O)C(=O)N[C@@H](Cc1c[nH]c2ccccc12)C(=O)N[C@@H](CC(C)C)C(=O)N[C@@H](CC(C)C)C(=O)N[C@@H](C)C(=O)N[C@@H](CCC(N)=O)C(=O)N[C@@H](CCCCN)C(=O)NCC(=O)N[C@@H](CCCCN)C(=O)N[C@@H](CCCCN)C(=O)N[C@@H](CC(N)=O)C(=O)N[C@@H](CC(=O)O)C(=O)N[C@@H](Cc1c[nH]c2ccccc12)C(=O)O)C(C)C
With B5 the “cAMP agonism % Emax” value was 0%, the “cAMP antagonism” value was 3.98 nM and the “cAMP antagonism % inhib” value was 82%. The “cAMP antagonism pIC50” value was 8.4.
